Measured values reported in patent publication US20110269161.

Experiments:
[1] = biological target: T1, peptide B6 (PKRKVSSAEGPFR), derived from nonhistone chromosomal protein HMG-14 (Ser6)
T1 chain: PKRKVSSAEGPFR

[2] = biological target: T2, peptide C11 (NKRRGSVPILPFR), derived from erythrocyte membrane protein band 4.2 (Ser247)
T2 chain: NKRRGSVPILPFR

[3] = biological target: T3, peptide C6 (TKRSGSVYEPPFR), derived from phosphorylase b kinase regulatory subunit beta (Ser26)
T3 chain: TKRSGSVYEPPFR

[4] = biological target: T4, peptide E11 (RKRLISSVEDPFR), derived from tuberin (Ser1798)
T4 chain: RKRLISSVEDPFR

[5] = biological target: T5, peptide F6 (RIRTQSFSLQPFR), derived from nitric-oxide synthase, endothelial (Ser1176)
T5 chain: RIRTQSFSLQPFR

[6] = biological target: T6, peptide G5 (SKRRNSEFEIPFR), derived from tryptophan 5-hydroxylase 1 (Ser58)
T6 chain: SKRRNSEFEIPFR

B1: 90 kDa ribosomal S6 kinases 1 (RSK1, 1-735), purified human active kinase (protein)
chain: MPLAQLKEPWPLMELVPLDPENGQTSGEEAGLQPSKDEGVLKEISITHHVKAGSEKADPSHFELLKVLGQGSFGKVFLVRKVTRPDSGHLYAMKVLKKATLKVRDRVRTKMERDILADVNHPFVVKLHYAFQTEGKLYLILDFLRGGDLFTRLSKEVMFTEEDVKFYLAELALGLDHLHSLGIIYRDLKPENILLDEEGHIKLTDFGLSKEAIDHEKKAYSFCGTVEYMAPEVVNRQGHSHSADWWSYGVLMFEMLTGSLPFQGKDRKETMTLILKAKLGMPQFLSTEAQSLLRALFKRNPANRLGSGPDGAEEIKRHVFYSTIDWNKLYRREIKPPFKPAVAQPDDTFYFDTEFTSRTPKDSPGIPPSAGAHQLFRGFSFVATGLMEDDGKPRAPQAPLHSVVQQLHGKNLVFSDGYVVKETIGVGSYSECKRCVHKATNMEYAVKVIDKSKRDPSEEIEILLRYGQHPNIITLKDVYDDGKHVYLVTELMRGGELLDKILRQKFFSEREASFVLHTIGKTVEYLHSQGVVHRDLKPSNILYVDESGNPECLRICDFGFAKQLRAENGLLMTPCYTANFVAPEVLKRQGYDEGCDIWSLGILLYTMLAGYTPFANGPSDTPEEILTRIGSGKFTLSGGNWNTVSETAKDLVSKMLHVDPHQRLTAKQVLQHPWVTQKDKLPQSQLSHQDLQLVKGAMAATYSALNSSKPTPQLKPIESSILAQRRVRKLPSTTL
For B1, the “in vitro peptide phosphorylation by recombinant kinase (KAYAK, LC-MS)” value (shortened to “in vitro peptide phosphorylation”) [1] was “recombinant RSK1 could robustly phosphorylate peptides B6, C6, C11 and G5 in vitro”, the “in vitro peptide phosphorylation” value [2] was “recombinant RSK1 could robustly phosphorylate peptides B6, C6, C11 and G5 in vitro” and the “in vitro peptide phosphorylation” value [3] was “recombinant RSK1 could robustly phosphorylate peptides B6, C6, C11 and G5 in vitro”. For the same protein, the “phosphorylation by purified kinase (KAYAK profiling of 90 peptides)” value [4] was “is preferably phosphorylated by purified RSK1 enzyme”, the “peptide phosphorylation, 100 µM peptide reacted individually” value [5] was “both RSK and Akt demonstrated strong phosphorylation” and the “in vitro peptide phosphorylation” value [6] was “recombinant RSK1 could robustly phosphorylate peptides B6, C6, C11 and G5 in vitro”.
